Measured values taken from patent publication US20230212549A1, “COMPOUNDS COMPRISING A […] LIGAND AND USE THEREOF” (priority 2021, published 2023).
Bridge positions count the residues as written; N and C are the ends.

T1: Acetylcholinesterase (h) (human), P22303
T1 chain: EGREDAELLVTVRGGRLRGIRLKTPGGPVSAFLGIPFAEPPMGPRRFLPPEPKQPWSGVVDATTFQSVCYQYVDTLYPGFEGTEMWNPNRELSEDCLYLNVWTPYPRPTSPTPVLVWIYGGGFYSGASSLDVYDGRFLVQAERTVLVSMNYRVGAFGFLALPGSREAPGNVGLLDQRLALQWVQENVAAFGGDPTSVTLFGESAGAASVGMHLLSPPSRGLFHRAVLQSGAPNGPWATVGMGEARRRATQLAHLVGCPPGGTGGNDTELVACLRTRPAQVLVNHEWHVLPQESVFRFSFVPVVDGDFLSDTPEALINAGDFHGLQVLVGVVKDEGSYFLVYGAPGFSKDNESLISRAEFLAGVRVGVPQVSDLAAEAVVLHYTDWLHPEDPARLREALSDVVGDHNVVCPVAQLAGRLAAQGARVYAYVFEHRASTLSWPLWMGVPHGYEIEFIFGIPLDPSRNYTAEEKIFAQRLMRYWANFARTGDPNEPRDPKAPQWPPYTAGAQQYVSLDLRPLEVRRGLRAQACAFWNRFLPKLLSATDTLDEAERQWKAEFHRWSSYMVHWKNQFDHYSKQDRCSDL

T2: Caspase-9, P55211
T2 chain: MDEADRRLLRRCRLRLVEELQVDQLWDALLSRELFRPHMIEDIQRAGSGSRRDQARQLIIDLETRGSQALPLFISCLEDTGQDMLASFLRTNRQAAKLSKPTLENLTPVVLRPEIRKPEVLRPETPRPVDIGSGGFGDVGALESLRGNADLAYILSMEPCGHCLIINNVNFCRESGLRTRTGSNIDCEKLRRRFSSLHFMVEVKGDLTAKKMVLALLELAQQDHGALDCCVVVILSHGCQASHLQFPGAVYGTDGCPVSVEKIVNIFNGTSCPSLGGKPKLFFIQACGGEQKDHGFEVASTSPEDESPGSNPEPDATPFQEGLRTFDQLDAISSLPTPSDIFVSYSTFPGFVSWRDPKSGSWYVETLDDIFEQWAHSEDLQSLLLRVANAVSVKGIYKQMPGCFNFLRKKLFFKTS

T3: Renin, P00797
T3 chain: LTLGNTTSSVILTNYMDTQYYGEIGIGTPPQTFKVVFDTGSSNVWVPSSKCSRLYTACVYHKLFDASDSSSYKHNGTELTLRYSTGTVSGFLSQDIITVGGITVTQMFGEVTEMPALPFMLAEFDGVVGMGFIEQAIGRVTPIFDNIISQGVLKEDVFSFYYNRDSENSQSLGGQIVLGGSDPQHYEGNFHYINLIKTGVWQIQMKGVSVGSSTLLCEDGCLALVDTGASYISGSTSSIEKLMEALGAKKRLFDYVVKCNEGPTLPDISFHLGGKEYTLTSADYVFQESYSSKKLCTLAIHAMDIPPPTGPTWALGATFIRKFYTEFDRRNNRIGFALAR


What was measured:
Test in all cases: cell-based or functional assay
[1] = target: T1, Acetylcholinesterase (h) (human), P22303
[2] = target: Activated Protein C, P04070
Ataxin3, P54252 = target: Ataxin3, P54252
Beta secretase, P56817 = target: Beta secretase, P56817
Caspase-9, P55211 = target: T2, Caspase-9, P55211
Cathepsin B, P07858 = target: Cathepsin B, P07858
Cathepsin V, O60911 = target: Cathepsin V, O60911
[3] = target: PDE3A (h) (human), Q14432
Renin, P00797 = target: T3, Renin, P00797
[4] = target: Ubiquitin carboxy-terminal hydrolase L1, P09936
[5] = target: Ubiquitin carboxyl-terminal hydrolase 14, P54578
Sequence of Ubiquitin carboxyl-terminal hydrolase 14, P54578 (P54578 whole entry): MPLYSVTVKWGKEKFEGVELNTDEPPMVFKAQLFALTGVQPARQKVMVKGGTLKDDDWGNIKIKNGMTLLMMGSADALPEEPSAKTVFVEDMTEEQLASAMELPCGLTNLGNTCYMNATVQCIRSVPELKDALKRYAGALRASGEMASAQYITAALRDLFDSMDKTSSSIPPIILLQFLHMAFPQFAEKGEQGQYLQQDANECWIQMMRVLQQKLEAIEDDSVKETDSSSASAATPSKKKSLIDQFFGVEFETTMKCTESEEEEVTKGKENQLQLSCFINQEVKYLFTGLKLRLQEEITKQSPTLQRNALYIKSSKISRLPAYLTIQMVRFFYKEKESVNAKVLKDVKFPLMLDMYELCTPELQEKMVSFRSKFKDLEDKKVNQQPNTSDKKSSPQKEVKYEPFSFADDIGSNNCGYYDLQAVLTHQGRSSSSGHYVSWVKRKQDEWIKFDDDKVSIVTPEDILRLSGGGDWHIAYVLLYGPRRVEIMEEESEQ

Sequence of Ataxin3, P54252 (P54252 whole entry): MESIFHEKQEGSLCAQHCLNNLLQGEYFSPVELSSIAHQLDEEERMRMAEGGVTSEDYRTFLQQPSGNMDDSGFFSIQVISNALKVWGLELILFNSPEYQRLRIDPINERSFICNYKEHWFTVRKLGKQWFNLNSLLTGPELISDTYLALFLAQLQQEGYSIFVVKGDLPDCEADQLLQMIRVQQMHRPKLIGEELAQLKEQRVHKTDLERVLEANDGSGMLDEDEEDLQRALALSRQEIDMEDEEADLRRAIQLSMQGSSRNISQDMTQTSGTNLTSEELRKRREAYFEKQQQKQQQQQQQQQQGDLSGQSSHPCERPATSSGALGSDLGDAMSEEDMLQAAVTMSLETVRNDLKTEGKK
Sequence of Beta secretase, P56817 (P56817 22-457 limits assumed): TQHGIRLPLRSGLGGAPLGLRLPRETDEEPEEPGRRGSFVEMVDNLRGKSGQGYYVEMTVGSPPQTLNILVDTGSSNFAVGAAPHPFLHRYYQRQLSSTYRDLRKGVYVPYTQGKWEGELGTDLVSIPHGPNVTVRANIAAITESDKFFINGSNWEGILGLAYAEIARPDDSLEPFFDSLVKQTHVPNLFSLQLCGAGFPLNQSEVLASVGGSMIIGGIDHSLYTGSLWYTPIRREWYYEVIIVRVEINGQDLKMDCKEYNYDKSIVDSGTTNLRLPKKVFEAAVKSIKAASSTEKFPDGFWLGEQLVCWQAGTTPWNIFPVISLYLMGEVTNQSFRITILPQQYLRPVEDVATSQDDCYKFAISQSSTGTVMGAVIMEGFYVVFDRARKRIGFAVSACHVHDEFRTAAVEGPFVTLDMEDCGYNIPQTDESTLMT
Sequence of Cathepsin V, O60911 (O60911 114-334 limits assumed): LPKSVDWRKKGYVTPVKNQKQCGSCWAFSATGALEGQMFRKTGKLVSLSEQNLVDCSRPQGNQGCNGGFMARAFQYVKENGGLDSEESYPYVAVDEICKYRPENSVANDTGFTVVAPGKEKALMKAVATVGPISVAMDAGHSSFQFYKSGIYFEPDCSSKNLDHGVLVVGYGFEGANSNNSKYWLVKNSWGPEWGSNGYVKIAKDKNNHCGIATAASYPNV
Sequence of Ubiquitin carboxy-terminal hydrolase L1, P09936 (P09936 whole entry): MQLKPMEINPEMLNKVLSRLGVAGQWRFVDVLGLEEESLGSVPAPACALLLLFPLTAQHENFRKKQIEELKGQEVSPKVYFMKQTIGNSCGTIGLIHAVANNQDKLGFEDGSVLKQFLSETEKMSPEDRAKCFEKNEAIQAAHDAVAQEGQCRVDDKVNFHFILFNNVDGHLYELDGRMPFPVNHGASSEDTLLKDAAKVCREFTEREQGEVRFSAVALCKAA
Sequence of PDE3A (h) (human), Q14432 (Q14432 669-1141 limits assumed): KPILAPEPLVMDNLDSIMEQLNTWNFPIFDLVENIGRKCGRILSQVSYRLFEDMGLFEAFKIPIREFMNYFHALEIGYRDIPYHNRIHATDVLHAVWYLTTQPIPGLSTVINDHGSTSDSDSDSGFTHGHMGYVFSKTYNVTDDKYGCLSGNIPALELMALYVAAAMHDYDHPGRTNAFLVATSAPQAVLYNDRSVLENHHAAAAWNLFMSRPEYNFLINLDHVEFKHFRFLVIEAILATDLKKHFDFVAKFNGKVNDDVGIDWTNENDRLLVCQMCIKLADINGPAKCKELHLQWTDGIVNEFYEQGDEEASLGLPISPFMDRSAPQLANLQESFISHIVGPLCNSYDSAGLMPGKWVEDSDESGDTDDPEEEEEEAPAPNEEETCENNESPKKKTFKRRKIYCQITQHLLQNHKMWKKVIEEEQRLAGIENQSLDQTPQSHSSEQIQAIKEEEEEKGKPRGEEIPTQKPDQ

Binder | % inhibition of control enzyme activity, compound at 10 µM [1] [%] | Percentage inhibition (%) at 1 µM [2] [%] | Percentage inhibition (%) at 10 µM [2] [%] | Percentage inhibition (%) at 1 µM (Ataxin3, P54252) [%] | Percentage inhibition (%) at 10 µM (Ataxin3, P54252) [%] | Percentage inhibition (%) at 1 µM (Beta secretase, P56817) [%] | Percentage inhibition (%) at 10 µM (Beta secretase, P56817) [%] | Percentage inhibition (%) at 1 µM (Caspase-9, P55211) [%] | Percentage inhibition (%) at 10 µM (Caspase-9, P55211) [%] | Percentage inhibition (%) at 1 µM (Cathepsin B, P07858) [%] | Percentage inhibition (%) at 10 µM (Cathepsin B, P07858) [%] | Percentage inhibition (%) at 1 µM (Cathepsin V, O60911) [%] | Percentage inhibition (%) at 10 µM (Cathepsin V, O60911) [%] | % inhibition of control enzyme activity, compound at 10 µM [3] [%] | Percentage inhibition (%) at 1 µM (Renin, P00797) [%] | Percentage inhibition (%) at 10 µM (Renin, P00797) [%] | Percentage inhibition (%) at 1 µM [4] [%] | Percentage inhibition (%) at 10 µM [4] [%] | Percentage inhibition (%) at 1 µM [5] [%] | Percentage inhibition (%) at 10 µM [5] [%]
Hex-CPPTQFC-OH (bridge 1-7; not fully specified (bridges); printed as Hex-[Cys(tMeBn(DOTA-AET))-Pro-Pro-Thr-Gln-Phe-Cys]-OH) [Hex-[Cys(tMeBn(DOTA-AET))-Pro-Pro-Thr-Gln-Phe-Cys]-OH] | 1 | -11 | 1 | 2 | -1 | 1 | 7 | -1 | -2 | 1 | 2 | -1 | -1 | -37 | 0 | -1 | -4 | 4 | 1 | 2
Hex-CPPTQFCD-NH2 (bridge 1-7; not fully specified (bridges); printed as Hex-[Cys(tMeBn(DOTA-PP))-Pro-Pro-Thr-Gln-Phe-Cys]-Asp-NH2) [Hex-[Cys(tMeBn(DOTA-PP))-Pro-Pro-Thr-Gln-Phe-Cys]-Asp-NH2] | -6 | 5 | 8 | 1 | 10 | -8 | -5 | 5 | 8 | 26 | 36 | 1 | -18 | -3 | -1 | 3 | -2 | 4 | -1 | 5
